Reference: patent publication US7919300B2, “Glucose isomerase mutants” (priority 2004, dated 2011)

Substrate: OC[C@H]1OC(O)[C@H](O)[C@@H](O)[C@@H]1O
Test: Measurement of kinetic parameters of glucose isomerase mutant MGI-4 with D-glucose as substrate
Type: biochemical, Thermoanaerobacterium saccharolyticum
Details: pH 6.5, 20 mM sodium phosphate, 250 μM CoCl2, 5 mM MgCl2, 10 minutes
Description: Fragment AFSR was amplified using primer pair 182AF (see Table 1 below) and 187SR (see Table 1) on the following condition: 20 mM Tris-HCl (pH 8.8), 10 mM KCl, 10 mM (NH4)2SO4, 2 mM MgSO4, 0.1% Triton X-100, 0.4 μM Primer 182AF and 0.4 μM Primer 187SR, 50 μM DATP, 50 μM dTTP, 50 μM dCTP, 50 μM dGTP, 1.5 U Pfu DNA polymerase, 20 ng pGEMT-TS, and the total volume was adjusted to 50 μl with distilled water. The PCR amplification program for the reaction was: 95° C., 3 min; then 35 cycles of 95° C., 50 seconds, 52° C., 30 seconds, 72° C., 180 seconds; and with an additional 5 minutes at 72° C. at the end of the reaction. The PCR product, fragment AFSR, was separated on 1% agarose gel and recovered using QIAquick Gel Extraction Kit (QIAGEN, German). Fragment SFQR was amplified using primer pair 187SF (Example 4) and 299QR (Example 5) on the following condition: 20 mM Tris-HCl (pH 8.8), 10 mM KCl, 10 mM (NH4)2SO4, 2 mM MgSO4, 0.1% Triton X-100, 0.4 μM Primer 187SF and 0.4 μM Primer 299QR, 50 μM dATP, 50 μM dTTP, 50 μM dCTP, 50 μM dGTP, 1.5 U Pfu DNA polymerase, 20 ng pGEMT-TS, and the total volume was adjusted to 50 μl with distilled water. The PCR amplification program for the reaction was: 95° C., 3 min; then 35 cycles of 95° C., 50 seconds, 52° C., 30 seconds, 72° C., 180 seconds; and with an additional 5 minutes at 72° C. at the end of the reaction. The PCR product, fragment SFQR, was separated on 1% agarose gel and recovered using QIAquick Gel Extraction Kit (QIAGEN, German). The full-length glucose isomerase gene was then amplified on the following condition: 20 mM Tris-HCl (pH 8.8), 10 mM KCl, 10 mM (NH4)2SO4, 2 mM MgSO4, 0.1% Triton X-100, 0.4 μM Primer T1 and 0.4 μM Primer T2, 50 μM dATP, 50 μM dTTP, 50 μM dCTP, 50 μM dGTP, 1.5 U Pfu DNA polymerase, 20 ng fragment T1FR (Example 2), 20 ng fragment FFAR (Example 6), 20 ng […], 20 ng fragment SFQR and 20 ng fragment QFT2 (Example 5), and the total volume was adjusted to 50 μl with distilled water. The PCR amplification program for the reaction was: 95° C., 3 min; then 35 cycles of 95° C., 50 seconds, 52° C., 30 seconds, 72° C., 180 seconds; and with an additional 5 minutes at 72° C. at the end of the reaction. The full-length mutant MGI-4 was separated on 1% agarose gel and recovered using QIAquick Gel Extraction Kit (QIAGEN, German). Plasmid pGEMT-MGI-4, generated after ligation between MGI-4 and pGEMT-Easy, was transformed into competent E. coli HB101 and the transformants were screened for clones of glucose isomerase activity on 1% MacConkey agar plates containing 1% D-xylose and 50 mg/L ampicillin. pGEMT-MGI-4 DNA was then isolated from the positive clones and sequenced. The sequencing results confirmed that the desired site-directed mutations were correctly introduced. Its amino acid sequence was shown as SEQ ID NO.: 32 (see the Sequence Listing below).
The isolation and purification of glucose isomerase mutant MGI-4 were as described in Example 9, except the plasmid used was pGEMT-MGI-4. The partially purified enzyme was shown on FIG. 1. Other glucose isomerase mutants were also isolated and purified as described in Example 9.

B1: Thermoanaerobacterium saccharolyticum glucose isomerase mutant MGI-4 (W139F/R182A/F187S/T299Q), SEQ ID NO.: 32 (Thermoanaerobacterium saccharolyticum; … (protein)
chain: MNKYFENVSKIKYEGPKSNNPYSFKFYNPEEVIDGKTMEEHLRFSIAYWHTFTADGTDQFGKATMQRPWNHYTDPMDIAKARVEAAFEFFDKINAPFFCFHDRDIAPEGDTLRETNKNLDTIVAMIKDYLKTSKTKVLFGTANLFSNPRFVHGASTSCNADVFAYSAAQVKKALEITKELGAENYVSWGGREGYETLLNTDMELELDNFARFLHMAVDYAKEIGFEGQFLIEPKPKEPTKHQYDFDVANVLAFLRKYDLDKYFKVNIEANHATLAFHDFQHELRYARINGVLGSIDANQGDMLLGWDTDQFPTDIRMTTLAMYEVIKMGGFDKGGLNFDAKVRRASFEPEDLFLGHIAGMDAFAKGFKVAYKLVKDGVFDKFIEERYASYKEGIGADIVSGKADFKSLEKYALEHSQIVNKSGRQELLESILNQYLFAE
Km (other: MGI-4, 65° C., 65.0 °C): 27.9 mM | kcat (other: MGI-4, 65° C., 65.0 °C): 1009.0 min⁻¹ | kcat/Km (other: MGI-4, 65° C., 65.0 °C): 36.1 mM⁻¹ min⁻¹ | Km (other: MGI-4, 80° C., 80.0 °C): 51.3 mM | kcat (other: MGI-4, 80° C., 80.0 °C): 2981.1 min⁻¹ | kcat/Km (other: MGI-4, 80° C., 80.0 °C): 58.1 mM⁻¹ min⁻¹
